Assay results: US20220387487A1, “COMPOSITIONS AND METHODS FOR TREATMENT OF CANCER” (Aleta Biotherapeutics Inc., priority 2019, published 2022)

T1: CLEC12A K form (Homo sapiens, UniProt Q5QGZ9)
T1 construct: transfected with full-length CLEC12A (UniProt Q5QGZ9-1) cDNAs; host or cells: HEK-293T
T1 sequence (Q5QGZ9 1-275 isoform Q5QGZ9-1): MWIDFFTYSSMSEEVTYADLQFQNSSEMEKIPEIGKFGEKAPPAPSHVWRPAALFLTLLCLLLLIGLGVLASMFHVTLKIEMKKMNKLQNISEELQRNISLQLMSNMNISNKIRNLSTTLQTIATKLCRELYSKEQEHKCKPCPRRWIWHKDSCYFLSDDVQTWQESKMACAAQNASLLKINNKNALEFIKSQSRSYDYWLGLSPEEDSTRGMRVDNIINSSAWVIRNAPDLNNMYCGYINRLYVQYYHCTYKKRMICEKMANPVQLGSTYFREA

T2: CLEC12A (Homo sapiens, UniProt Q5QGZ9, K244Q)
T2 sequence (Q5QGZ9 65-265 K244Q): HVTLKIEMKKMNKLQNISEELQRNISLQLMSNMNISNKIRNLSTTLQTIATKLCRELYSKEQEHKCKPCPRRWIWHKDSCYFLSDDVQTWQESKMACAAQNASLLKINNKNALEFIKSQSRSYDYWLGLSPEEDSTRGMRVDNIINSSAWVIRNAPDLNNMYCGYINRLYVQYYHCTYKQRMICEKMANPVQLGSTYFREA

T3: CLEC12A Q form (Homo sapiens, UniProt Q5QGZ9, K244Q)
T3 construct: transfected with full-length CLEC12A (UniProt Q5QGZ9-1) cDNAs; expressed in transfected cells; host or cells: HEK-293T
T3 sequence (Q5QGZ9 1-275 isoform Q5QGZ9-1 K254Q): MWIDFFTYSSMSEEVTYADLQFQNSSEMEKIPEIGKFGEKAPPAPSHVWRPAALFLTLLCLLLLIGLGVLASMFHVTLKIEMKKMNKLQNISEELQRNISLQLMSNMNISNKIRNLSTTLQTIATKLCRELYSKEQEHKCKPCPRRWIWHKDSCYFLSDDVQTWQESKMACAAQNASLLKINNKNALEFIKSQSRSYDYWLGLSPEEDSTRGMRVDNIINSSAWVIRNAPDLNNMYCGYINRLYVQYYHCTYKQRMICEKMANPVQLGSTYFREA


Experiments:
CLEC12A K form = target: T1, CLEC12A K form; assay: Flow cytometry binding to HEK-293T cells transfected with CLEC12A amino acid 254 K version; conditions: FIG. 19
Method: (§1) Given the unique binding properties of VHH clone 2H3 relative to the anti-CLEC12A scFv we tested the binding properties of a biparatopic fusion protein containing both the VHH clone 2H3 and an anti-CLEC12A scFv. HEK-293T cells were transfected with full-length CLEC12A (UniProt Q5QGZ9-1) cDNAs expressing the amino acid 254 “K” version of CLEC12A (GenScript) or a version with “Q” at this position generated by mutagenesis. The cells were removed with Accutase and washed with PBS, suspended in 50 μL FACS buffer (FB, PBS+1% BSA and 0.1% sodium azide) and blocked with human Fc block (Becton Dickinson) at room temperature for 10 minutes. Then, 50 μl of the purified fusion proteins #186, #330 or #357 diluted in FACS buffer (starting at 3 μg/ml with 3 fold dilutions) were added. The cell/fusion protein mixture was incubated for 30 minutes at 4° C. and then washed twice with FACS buffer. The cells were suspended in 100 μl of FACS buffer, stained with HIB19-PE (BioLegend […]), and incubated for 30 minutes at 4° C. The cells were washed twice with FACS buffer, fixed with a final concentration of 1% PFA in PBS (Thermo Scientific) and then analyzed by flow cytometry.

CLEC12A = target: T2, CLEC12A; assay: ELISA of fusion proteins, FMC63 coat, biotinylated CLEC12A detection; assay type: binding
CLEC12A Q form = target: T3, CLEC12A Q form; assay: Flow cytometry binding to HEK-293T cells transfected with CLEC12A amino acid 254 Q version; conditions: FIG. 19
Method: as §1

[1] = tested on: CLL-1 positive U937 cells; assay: Flow cytometry binding of fusion proteins to U937 cells (FMC63-PE detection); parameters: species or system human; conditions: FIG. 20
Method: The ability of an expressed biparatopic construct comprising the fusion protein containing a CD19 variant, an anti-CLL-1 scFv, and an anti-CLL-1 VHH (#357) to bind CLL-1 positive U937 cells was evaluated relative to the binding of an expressed construct containing a fusion protein comprised of a CD19 variant and an anti-CLL-1 VHH (#330) and an expressed construct containing a fusion protein comprised of a wild type CD19 and an anti-CLL-1 scFv (#186). […] Approximately 5×10^5 cells were aliquoted per sample. The cells were spun, washed with FB, and then suspended in 100 μl of the biparatopic or monospecific fusion protein dilution (supernatant or purified starting at 10 μg/ml) in FB. The cell/fusion protein mixture was incubated for 30 minutes at 4° C. and then washed 2× with FB. […] After washing 2× with FB, the cells were fixed with a final concentration of 1% PFA in PBS (Thermo Scientific) and then analyzed by flow cytometry (Accuri C6, Becton-Dickinson).
To further confirm the binding and cytotoxicity capabilities of an expressed biparatopic fusion protein comprising a CD19 variant, an anti-CLL-1 scFv, and an anti-CLL-1 VHH, a construct was generated with the same features as construct #357 but lacking the HIS tag. […] The cells were washed twice with FACS buffer, fixed with a final concentration of 1% PFA in PBS (Thermo Scientific) and then analyzed by flow cytometry. […]

Row | Molecule | binding to the K form of CLEC12A (CLEC12A K form) | binding to the K form weaker than to the Q form (CLEC12A K form) | CLEC12A binding EC50 (CLEC12A) [ng/mL] | EC50 (CLEC12A; read-out: CLEC12A binding EC50) [nM] | binding to the Q form of CLEC12A (CLEC12A Q form) | binding to U937 cells [1]
1 | #330: fusion protein comprised of a CD19 variant and an anti-CLL-1 VHH (2H3); SEQ ID NO:305 (protein) MEFGLSWVFLVALFRGVQCQVQLQESGGGLVQAGGSLRLSCVASGSIRSINVMGWYRQAPGKQRELVAACASDGNTYYADSVKGRFTISRDNAEKTVYLQMNNLKPDDTAVYYCDANSRGNYYSGQGTQVTVSSTSGPGGQGAGGGGSGGGGSGGGGSGGGGSPEEPLVVKVEEGDTAALWCLKGTSDGPTQQLTWSRESPLKPFLKYSLGVPGLGVHVRPDAISVVIRNVSQQMGGFYLCQPGPPSEKAWQPGWTVNVEGSGELFRWNVSDLGGLGCGLKNRSSEGPSSPSGKLMSPKLYVWAKDRPEIWEGEPPCLPPRDSLNQSLSRDLTVAPGSTLWLSCGVPPDSVSRGPLSWTHVHPKGPKSLLSLELKDDRPARDMWVMGTSLMLPRATAQDAGKWYCHRGNLTMSFHLEITARPSRHHHHHH | very weakly | greater than 10,000 fold | 1.4 | 0.0299 | binds very well | 
2 | #440: fusion protein comprising an anti-CLEC12A VHH, an anti-CD33 scFv, and a CD19 ECD; SEQ ID NO:321 (protein) MEFGLSWVFLVALFRGVQCQVQLVQSGAEVKKPGESVKVSCKASGYTFTNYGMNWVKQAPGQGLEWMGWINTYTGEPTYADKFQGRVTMTTDTSTSTAYMEIRNLGGDDTAVYYCARWSWSDGYYVYFDYWGQGTSVTVSSGGGGSGGGGSGGGGSDIVMTQSPDSLTVSLGERTTINCKSSQSVLDSSTNKNSLAWYQQKPGQPPKLLLSWASTRESGIPDRFSGSGSGTDFTLTIDSPQPEDSATYYCQQSAHFPITFGQGTRLEIKGGGGSGGGGSGGGGSGGGGSQVQLQESGGGLVQAGGSLRLSCVASGSIRSINVMGWYRQAPGKQRELVAACASDGNTYYADSVKGRFTISRDNAEKTVYLQMNNLKPDDTAVYYCDANSRGNYYSGQGTQVTVSSTSGPGGQGAGGGGSGGGGSGGGGSGGGGSPEEPLVVKVEEGDTAALWCLKGTSDGPTQQLTWSRESPLKPFLKYSLGVPGLGVHVRPDAISVVIRNVSQQMGGFYLCQPGPPSEKAWQPGWTVNVEGSGELFRWNVSDLGGLGCGLKNRSSEGPSSPSGKLMSPKLYVWAKDRPEIWEGEPPCLPPRDSLNQSLSRDLTVAPGSTLWLSCGVPPDSVSRGPLSWTHVHPKGPKSLLSLELKDDRPARDMWVMGTSLMLPRATAQDAGKWYCHRGNLTMSFHLEITARPSRHHHHHH |  |  |  |  |  | capable of binding to U937 cells
